# Literature values in publication PMC4134560.
# pKd: −log10 of the molar value.
# Molecular target: p53 (Homo sapiens) (UniProt P04637)
# Details: cited from earlier work
substance,measurement,value
p53 (from UniProt P04637),pKd,> 6.00
